Source: PMC3115796 (The Journal of Cell Biology, 2011)

Key:
[1] = target: the molecule itself; test: SEC-MALS
[2] = target: BioGFP-SLAIN2 (human, UniProt Q9P270 1-581, biotin (substrate linker of the biotin ligase BirA, co-expressed)); test: pull-down
[3] = target: T1, CLIPCG12 (human, UniProt P30622 48-300); test: ITC
T1 sequence: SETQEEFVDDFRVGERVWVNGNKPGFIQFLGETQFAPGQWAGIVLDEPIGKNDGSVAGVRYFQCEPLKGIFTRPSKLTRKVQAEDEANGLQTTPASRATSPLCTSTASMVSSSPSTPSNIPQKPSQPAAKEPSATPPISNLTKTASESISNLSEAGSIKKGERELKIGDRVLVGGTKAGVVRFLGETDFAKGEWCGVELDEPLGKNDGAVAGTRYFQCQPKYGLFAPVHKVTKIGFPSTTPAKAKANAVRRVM

B1: SLAIN2 N-terminal fragment (residues 1–43) (domain or fragment)
chain: not shown
stoichiometry N [1]: 2

B2: GST–CLIP-170-N (domain or fragment)
chain: MSMLKPSGLKAPTKILKPGSTALKTPAAAAAPLEKTVPSEKASGPPSSETQEEFVDDFRVGERVWVNGNKPGFIQFLGETQFAPGQWAGIVLDEPIGKNDGSVAGVRYFQCEPLKGIFTRPSKLTRKVQAEDEANGLQTAHARAASPLSTAAATMVSSSPATPSNIPQKPSQPVAKETSATPQISNLTKTASESISNLSEAGSVKKGERELKIGDRVLVGGTKAGVVRFLGETDFAKGEWCGVELDEPLGKNDGAVAGTRYFQCQPKYGLFAPVHKVTKIGFPSTTPAKAKAAAVRRVMATTPASLKRSP
binding result [2]: binds

B3: SLAIN2c (peptide)
peptide: GSMKDDSWKDGCY
stoichiometry N [3]: 2
